Several values for one entry are separate records, joined by “and”; a condition that tells them apart may be missing. Identical values can stand only once.
What was measured:
[1] = target: T1, human ROR1 protein (ROR1-His; Sino Biological, Catalog #13968-H08H) (human, UniProt Q01973 30-406); assay: SACE ELISA on human ROR1-His
T1 construct: extracellular domain; Bought protein; also called human recombinant ROR1 protein
Experimental: (§1) The binding affinity of the anti-ROR1 antibody-antigen was evaluated using an ELISA-based solution binding assay. Specifically, 96-well microtiter plates (Nunc-Immuno Plates, NUNC) were coated with ROR1 protein (ROR1-His; sino biological, Catalog #13968-H08H) at a concentration of 1 μg/ml in PBS solution at 4° C. for 16 hours, and non-specific binding sites were blocked with 1% (v/v) BSA (bovine serum albumin) for 2 hours.
(§2) Subsequently, on the 96-well microtiter plates, anti-ROR1 antibodies at concentrations stated in FIGS. 1a to 1c were added to the microtiter plates, and their binding capabilities were analyzed by ELISA as follows. Specifically, after incubating at 37° C. for 2 hours, the plates were washed five times with PBS containing 0.05% (v/v) Tween 20, then the HRP-conjugated Fab polyclonal antibody reagent (Pierce, Catalog #31414) was diluted at a 1:30,000 ratio and added to the washed microtiter plates, then reacted for 1 hour at 37° C., then detected the bound anti-ROR1 antibodies. After reaction, the color was developed using TMB (tetramethylbenzidine, Sigma, T0440). The enzymatic reaction was stopped with 0.5 mol/L sulfuric acid, and the absorbance was read at 450 nm and 650 nm using a microplate reader (Molecular Devices). […]

[2] = target: T1, human ROR1 protein (ROR1-His; Sino …); assay: SACE ELISA on human ROR1-His; antibody stored 2 weeks at 37°C
Experimental: as §1, §2

[3] = target: T1, human ROR1 protein (ROR1-His; Sino …); assay: SACE ELISA on human ROR1-His; antibody stored 2 weeks at 4°C; BA6 IgG (WT), stored at 4° C.
Experimental: as §1, §2

[4] = target: T1, human ROR1 protein (ROR1-His; Sino …); assay: ELISA, plate coated with ROR1-His (1 ug/ml), bound antibody detected with HRP-conjugated anti-Fab polyclonal antibody, OD at 450 nm
Experimental: as §1
(§3) Subsequently, on the 96-well microtiter plates, anti-ROR1 antibodies at concentrations stated in FIGS. 1a to 1c were added to the microtiter plates, and their binding capabilities were analyzed by ELISA as follows. Specifically, after incubating at 37° C. for 2 hours, the plates were washed five times with PBS containing 0.05% (v/v) Tween 20, then the HRP-conjugated Fab polyclonal antibody reagent (Pierce, Catalog #31414) was diluted at a 1:30,000 ratio and added to the washed microtiter plates, then reacted for 1 hour at 37° C., then detected the bound anti-ROR1 antibodies. After reaction, the color was developed using TMB (tetramethylbenzidine, Sigma, T0440). The enzymatic reaction was stopped with 0.5 mol/L sulfuric acid, and the absorbance was read at 450 nm and 650 nm using a microplate reader (Molecular Devices).

[5] = target: T1, human ROR1 protein (ROR1-His; Sino …); assay: ELISA, plate coated with ROR1-His (1 ug/ml), bound antibody detected with HRP-conjugated anti-Fab polyclonal antibody, OD at 450 nm; lower graph and table
Experimental: as §1, §3

[6] = target: T1, human ROR1 protein (ROR1-His; Sino …); assay: ELISA, plate coated with ROR1-His (1 ug/ml), bound antibody detected with HRP-conjugated anti-Fab polyclonal antibody, OD at 450 nm; upper graph and table
Experimental: as §1, §3

[7] = target: T1, human ROR1 protein (ROR1-His; Sino …); assay: ELISA, plate coated with ROR1-His (1 ug/ml), bound antibody detected with HRP-conjugated anti-Fab polyclonal antibody, OD at 450 nm; lower graph and table; remark: listed apart in the source
Experimental: as §1, §3

[8] = target: T1, human ROR1 protein (ROR1-His; Sino …); assay: ELISA, plate coated with ROR1-His (1 ug/ml), bound antibody detected with HRP-conjugated anti-Fab polyclonal antibody, OD at 450 nm; upper graph and table; remark: listed apart in the source
Experimental: as §1, §3

[9] = target: T1, human ROR1 protein (ROR1-His; Sino …); assay: SACE ELISA on human ROR1-His; antibody stored 2 weeks at 4°C
Experimental: as §1, §2

[10] = target: T2, human ROR1 on cells (NCI-N87, CHOK1-hROR1, AGS, CHO-huROR1-huB7-H3) (human, UniProt Q01973 30-937); assay: flow cytometry on CHO-huROR1-huB7-H3 cells, FITC anti-human IgG, MFI over secondary antibody only
T2 construct: whole, on cells; also called cell surface ROR1
Excerpt: To evaluate the cell-binding ability of the anti-ROR1/B7-H3 bispecific antibody, cells expressing both ROR1 and B7-H3 were used to compare the cell-binding ability of the bispecific antibody with that of the monospecific antibodies.
As a cell line for the comparison of cell-binding ability, CHO-huROR1-huB7-H3 cell line (obtained by transfecting the ROR1-CHO recombinant cell line (BPS Bioscience) with the human B7-H3 gene (Origene) and selecting for the desired gene-inserted single cells using G418), which stably transfected the human ROR1 and human B7-H3 gene to artificially overexpress both human ROR1 and human B7-H3 proteins were used, and analysis was performed using a flow cytometer (LSRFortessa X-20, BD Biosciences). Specifically, after dissociating and washing the overexpressing cell line with PBS, the cell number was counted, and the cells were seeded at a density of 2×10⁵ cells per well into a V-bottom 96-well plate (96 Well Plate-RV, Bioneer, 910D09). Antibodies diluted 4-fold starting from 100 nM in 1% BSA solution were added at 100 μL per well to the centrifuged cells and incubated at 4° C. for 1 hour. […] After the reaction, the cells were washed twice with the same buffer, resuspended in 100 μL of PBS, and analyzed using a FACS instrument. A total of 10,000 cells were detected per measurement, and the data was analyzed using FlowJo software. […]

Ratio (EC50, 4°C sample against 37°C sample) [1] [%]	EC50 [2] [nM]	EC50 [3] [nM]	EC50 [4] [nM]	EC50 [5] [nM]	EC50 [6] [nM]	EC50 [7]	EC50 [8] [nM]	EC50 [9] [nM]	EC50 (read off the curve) [10] [nM]	Binder
83.1	0.261	0.217	0.293	0.293	0.707	0.215 nM	1			BA6 antibody (WT) (antibody, V domains shown, Anti-ROR1 antibody from WO2019-225992 A1, said to be based on IgG1; only the variable domains are tied to the monospecific IgG; also called BA6 IgG (WT); parental clone) VH: EVQLLESGGGLVQPGGSLRLSCAASGFTFSNYDMSWVRQAPGKGLEWVSAIYHSGSSKYYADSVKGRFTISRDNSKNTLYLQMNSLRAEDTAVYYCARGGNGAWDTGFDYWGQGTLVTVSS VL: QSVLTQPPSASGTPGQRVTISCSGSSSNIGSNDVSWYQQLPGTAPKLLIYYDNNRPSGVPDRFSGSKSGTSASLAISGLRSEDEADYYCGAWDDSLSGYVFGGGTKLTVL
129	0.129					0.144 nM and 0.133 nM		0.166	~0.7	BA6M11 anti-ROR1 antibody (IgG) (antibody, V domains shown, IgG form; also called BA6 IgG (M11); double mutant D51E (LC)+N97S (HC)) VH: EVQLLESGGGLVQPGGSLRLSCAASGFTFSNYDMSWVRQAPGKGLEWVSAIYHSGSSKYYADSVKGRFTISRDNSKNTLYLQMNSLRAEDTAVYYCARGGSGAWDTGFDYWGQGTLVTVSS VL: QSVLTQPPSASGTPGQRVTISCSGSSSNIGSNDVSWYQQLPGTAPKLLIYYENNRPSGVPDRFSGSKSGTSASLAISGLRSEDEADYYCGAWDDSLSGYVFGGGTKLTVL

Source: patent publication US20260015418A1 (ABL BIO, published 2026)
